Laboratory results published in the supplement of paper PMC10126150.
± gives the standard deviation of the averaged measurements.

System: ATP
Experiment: switch fluorescence ratio, 500 uM ATP over buffer (Cy3 cluster intensity, sum of 5 cycles each) (fold (ratio)); higher = stronger signal-on switching upon ATP binding; sequences stand for … in TCGTCGGCAGCGTCAGATGTGTATAAGAGACAGTTTTTTTTTTTTTTTTTTTTTTTTT…TC
Settings: aptamer strand: ATP DNA aptamer (quencher-CACCTGGGGGAGTATTGCGGAGGAAGG + anchor), 100 nM annealed; ATP concentration: 500 uM
How it was run: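 Per cluster, summed Cy3 intensity from the target cycles was divided by that from the buffer cycles to give the fluorescence ratio, then averaged per switch-domain sequence. Clusters outside 100-1000 RFU were excluded. The Cy3-labelled switching-strand clusters, on a modified Illumina MiSeq flow-cell, were annealed to 100 nM quencher-labelled ATP aptamer and imaged in selection buffer, then after 15 min with 500 uM ATP at 22 °C, for five cycles with NaOH stripping and re-annealing between them.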
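Note: ATP exposure 15 min at 22 °C before imaging.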

Sequence | switch fluorescence ratio
TGGATGGGTA | 1.22 ± 0.33
TGGATGTATG | 0.99 ± 0.04
TGGATGTGGC | 0.963 ± 0.031
TGGATTACGT | 1.018 ± 0.0032
TGGATTGGAT | 1.03 ± 0.035
TGGCAAAATT | 1.01 ± 0.033
TGGCAAAGGA | 0.989 ± 0.026
TGGCAAATGT | 0.9818 ± 0.0049
TGGCAATATT | 2.31 ± 1.6
TGGCACATAT | 1.04 ± 0.054
TGGCATCTTT | 1.02 ± 0.018
TGGCCATCCT | 1.62 ± 0.82
TGGCCCGGGG | 0.988 ± 0.031
TGGCCCTTTT | 1.07 ± 0.13
TGGCCGGGTT | 1.33 ± 0.4
TGGCCGTGCT | 0.904 ± 0.071
TGGCCTAGTG | 1.002 ± 0.0071
TGGCGAAGGA | 1.018 ± 0.0019
TGGCGAGTCC | 0.973 ± 0.015
TGGCGGCATG | 1.01 ± 0.06
TGGCGGCTTT | 1.01 ± 0.041
TGGCGGGGGG | 0.994 ± 0.035
TGGCGGGGTA | 1.02 ± 0.034
TGGCGGGGTC | 0.9992 ± 0.0094
TGGCGGTATA | 0.993 ± 0.012

Sequence | switch fluorescence ratio
TGGCGGTCGG | 1 ± 0.048
TGGCGTGGGA | 1 ± 0.035
TGGCGTTGGT | 0.994 ± 0.056
TGGCTCAGTC | 0.997 ± 0.044
TGGCTCCATT | 1.01 ± 0.034
TGGCTGCAGA | 0.972 ± 0.064
TGGCTGGTAA | 0.991 ± 0.021
TGGCTTGGTA | 1 ± 0.02
TGGCTTGTTT | 0.99 ± 0.058
TGGGAAAGTT | 0.988 ± 0.025
TGGGAACTCT | 0.994 ± 0.012
TGGGAAGTTG | 0.956 ± 0.04
TGGGAATAGG | 0.993 ± 0.019
TGGGAATAGT | 1 ± 0.049
TGGGAATGTT | 1.01 ± 0.011
TGGGAATTAA | 0.979 ± 0.04
TGGGAATTGT | 1 ± 0.026
TGGGACCCTT | 1.06 ± 0.023
TGGGACGACG | 0.991 ± 0.022
TGGGACTGTT | 0.986 ± 0.028
TGGGAGAGGA | 1.02 ± 0.049
TGGGAGAGTT | 0.993 ± 0.023
TGGGAGATAT | 1 ± 0.028
TGGGAGCATA | 1.05 ± 0.022
TGGGAGCCCG | 0.9853 ± 0.0034

Sequence | switch fluorescence ratio
TGGGAGCGGT | 0.995 ± 0.007
TGGGAGGATG | 1.01 ± 0.039
TGGGAGGGAA | 0.995 ± 0.013
TGGGAGGGTA | 0.982 ± 0.022
TGGGAGGTCG | 1.09 ± 0.03
TGGGAGTCGG | 1.01 ± 0.035
TGGGAGTGGT | 1 ± 0.003
TGGGATACAG | 0.982 ± 0.026
TGGGATACGT | 1.55 ± 0.79
TGGGATCGTC | 0.966 ± 0.042
TGGGATGAGT | 1.007 ± 0.0081
TGGGATTGCG | 1.04 ± 0.012
TGGGATTGGC | 1.01 ± 0.11
TGGGATTTCA | 0.979 ± 0.045
TGGGATTTTT | 0.985 ± 0.031
TGGGCCGCTT | 1.04 ± 0.028
TGGGCCGGTA | 1.02 ± 0.031
TGGGCGATAG | 1.02 ± 0.027
TGGGCGATAT | 1.95 ± 1.1
TGGGCGCGGT | 0.975 ± 0.018
TGGGCGGCTT | 0.97 ± 0.011
TGGGCGGGAG | 0.993 ± 0.039
TGGGCGGGAT | 1 ± 0.039
TGGGCTGGCT | 1 ± 0.023
TGGGCTTTGG | 0.9992 ± 0.009

Sequence | switch fluorescence ratio
TGGGCTTTTT | 0.982 ± 0.041
TGGGGAACAC | 0.995 ± 0.043
TGGGGAACG | 0.9595 ± 0.006
TGGGGAACGC | 1.01 ± 0.034
TGGGGAAGAG | 1.02 ± 0.027
TGGGGAAGGA | 0.99 ± 0.018
TGGGGACAGC | 0.949 ± 0.027
TGGGGACAGT | 1 ± 0.017
TGGGGACTCC | 0.997 ± 0.032
TGGGGACTGG | 1.04 ± 0.088
TGGGGACTTA | 1.012 ± 0.0089
TGGGGAGAAG | 0.994 ± 0.013
TGGGGAGCAT | 1.01 ± 0.044
TGGGGAGCTT | 0.99 ± 0.023
TGGGGAGGAT | 0.974 ± 0.023
TGGGGATTGC | 1.02 ± 0.048
TGGGGCAACG | 0.979 ± 0.034
TGGGGCCCTT | 1.04 ± 0.02
TGGGGCGACG | 0.994 ± 0.034
TGGGGCGGGA | 1.02 ± 0.08
TGGGGCGGTT | 0.979 ± 0.024
TGGGGCGTCG | 1 ± 0.037
TGGGGCTAAG | 1.01 ± 0.034
TGGGGCTATT | 1.02 ± 0.045
TGGGGCTGTG | 0.991 ± 0.014

Sequence | switch fluorescence ratio
TGGGGGAAAA | 0.986 ± 0.01
TGGGGGACTT | 0.99 ± 0.039
TGGGGGAGAT | 1.04 ± 0.1
TGGGGGAGCC | 1.03 ± 0.041
TGGGGGAGTA | 0.952 ± 0.018
TGGGGGCACT | 0.982 ± 0.022
TGGGGGCTAC | 1 ± 0.01
TGGGGGGAAT | 1.03 ± 0.1
TGGGGGGACG | 1.03 ± 0.086
TGGGGGGAG | 1.0137 ± 0.00093
TGGGGGGAGG | 1 ± 0.036
TGGGGGGAGT | 1.01 ± 0.024
TGGGGGGATG | 0.996 ± 0.011
TGGGGGGGAC | 1.04 ± 0.069
TGGGGGGGG | 1.01 ± 0.05
TGGGGGGTAG | 0.988 ± 0.02
TGGGGGTAGT | 0.99 ± 0.022
TGGGGGTCGT | 1.02 ± 0.024
TGGGGGTGGT | 1 ± 0.028
TGGGGGTTGT | 0.987 ± 0.025
TGGGGTAATC | 1.03 ± 0.07
TGGGGTAGGA | 0.988 ± 0.029
TGGGGTATAC | 1.02 ± 0.038
TGGGGTATCT | 1 ± 0.019
TGGGGTGACA | 1.01 ± 0.054

Sequence | switch fluorescence ratio
TGGGGTGAGG | 1 ± 0.035
TGGGGTGCCG | 1.12 ± 0.039
TGGGGTGGTT | 1.03 ± 0.015
TGGGGTTAAA | 0.997 ± 0.016
TGGGGTTCGT | 0.998 ± 0.066
TGGGGTTCTG | 0.9832 ± 0.0022
TGGGGTTTAT | 1.01 ± 0.02
TGGGGTTTGG | 0.984 ± 0.036
TGGGTAAAAT | 0.971 ± 0.03
TGGGTAAAGG | 0.956 ± 0.015
TGGGTAAATT | 0.983 ± 0.014
TGGGTAAGCA | 1.03 ± 0.023
TGGGTAAGTT | 0.996 ± 0.039
TGGGTACGTC | 0.998 ± 0.026
TGGGTACTGG | 1.02 ± 0.018
TGGGTAGATA | 0.985 ± 0.045
TGGGTAGTGC | 0.997 ± 0.029
TGGGTATAGA | 1.01 ± 0.032
TGGGTATGTT | 1.02 ± 0.014
TGGGTATTAT | 0.9997 ± 0.0052
TGGGTCGGGG | 0.985 ± 0.016
TGGGTGAAAA | 1.001 ± 0.0036
TGGGTGAAGG | 0.999 ± 0.022
TGGGTGATAA | 1.04 ± 0.048
TGGGTGATGT | 0.996 ± 0.066

Sequence | switch fluorescence ratio
TGGGTGCATT | 1.014 ± 0.0044
TGGGTGCCGA | 0.989 ± 0.011
TGGGTGCGCA | 1.03 ± 0.025
TGGGTGGCTC | 1.011 ± 0.0015
TGGGTGGTGG | 0.983 ± 0.016
TGGGTGTCCA | 1 ± 0.021
TGGGTGTGGA | 1.01 ± 0.051
TGGGTGTTTT | 1.05 ± 0.12
TGGGTTAAAT | 0.995 ± 0.023
TGGGTTACAT | 1.01 ± 0.031
TGGGTTAGAG | 0.9878 ± 0.0052
TGGGTTAGGC | 0.97 ± 0.013
TGGGTTATGA | 0.9941 ± 0.0084
TGGGTTATTG | 0.998 ± 0.019
TGGGTTCAGG | 1 ± 0.015
TGGGTTCGTA | 0.994 ± 0.031
TGGGTTGTTT | 0.986 ± 0.031
TGGGTTTAAT | 1.03 ± 0.018
TGGGTTTGTT | 0.986 ± 0.03
TGGGTTTTAA | 0.999 ± 0.025
TGGTAAAGGC | 0.979 ± 0.042
TGGTAAATGG | 1.01 ± 0.019
TGGTAATAGT | 1.02 ± 0.038
TGGTAATGTG | 1.01 ± 0.096
TGGTAATTAT | 0.974 ± 0.023

Sequence | switch fluorescence ratio
TGGTACGGTT | 0.975 ± 0.015
TGGTAGACGT | 0.968 ± 0.016
TGGTAGGAGA | 0.979 ± 0.013
TGGTAGGGGA | 1.04 ± 0.03
TGGTAGGGGC | 1.02 ± 0.057
TGGTAGTGGG | 0.98 ± 0.026
TGGTATAATC | 1.001 ± 0.0038
TGGTATAGTC | 1.001 ± 0.0059
TGGTATCAGC | 0.999 ± 0.048
TGGTATGCCC | 1.04 ± 0.088
TGGTATGCGG | 1.02 ± 0.013
TGGTATTTTG | 0.977 ± 0.024
TGGTCAGCTT | 0.994 ± 0.017
TGGTCAGGGT | 0.9735 ± 0.0097
TGGTCCAGG | 1.15 ± 0.14
TGGTCCTATG | 1.01 ± 0.054
TGGTCGCATT | 1.01 ± 0.034
TGGTCGGGGC | 0.974 ± 0.025
TGGTCGTACG | 0.937 ± 0.071
TGGTCGTATT | 0.9577 ± 0.0063
TGGTCGTGTG | 1 ± 0.027
TGGTCTTCGT | 0.992 ± 0.057
TGGTGACCGT | 1 ± 0.025
TGGTGAGGGA | 0.99 ± 0.014
TGGTGAGGGC | 0.9816 ± 0.0077
